Laboratory results reported in patent US20260133192A1 (FRED HUTCHINSON CANCER CENTER, published 2026).
Values belong to the binder of their own block, whether it stands above or below them. *1 amine or outer side, *2 acyl side, *3 side chain or, on linkers, in order; H or OH if unused. Where no end group is shown, it is not given here. [ ]: non-standard residue; d: D form. βAsp = O=C(O)[C@H](CC(=O)[*:2])N[*:1]; Cit = NC(=O)NCCC[C@H](N)C(=O)O

Assays:
Experiment in all cases: B cells sorted with PTM-peptide tetramers; PTM epitope to which the cloned antibody binds, Table 7
[1] = biological target: T1, TFRC-5 PTM peptide LND{Cit}VMRVC (human, also: biotinylated, site not given here)
T1 construct: Synthetic citrullinated fragment of TFRC; biotinylated on tetramers for B cell sorting
T1 peptide: LND[Cit]VMRVC
Text: (§1) Once the immunogenic PTM peptides targeted by autoantibodies were identified, PTM-specific autoantibodies were isolated directly from SCLC patients and sequenced (FIG. 13). To accomplish this, PTM-binding B cells were enriched from SCLC patient peripheral blood mononuclear cells using PTM-peptide tetramers. PTM-peptide tetramers were created by combining PE- or APC-labeled magnetic tetramers containing streptavidin cores with biotinylated PTM peptides identified to bind more AAb from SCLC patient plasma compared to wildtype peptides. Five different PTM peptides were included in each PTM-tetramer; 5 citrullinated TFRC peptides were conjugated to PE-tetramers and 5 isoaspartylated peptides (3 CA9, 1 PLD3 and 1 SPINK1) were conjugated to APC-tetramers. These PTM-tetramers were then incubated with pooled peripheral blood mononuclear cells (PBMCs) from 3 different SCLC patients and tetramer bound cells were isolated with magnetic microbeads. This PTM-tetramer ‘enriched’ fraction was labeled with fluorescent antibodies and fluorescence activated cell sorted (FACS) into single cells. PTM-tetramer+ B cells were sorted, heavy and light chain antibody sequences from each B cell were amplified by RT-PCR, and heavy and light chain pairs were successfully sequenced. These sequences were cloned into human IgG expression vectors for antibody production and are shown in Table 7 with the location of the CRs underlined. The sequences of the CDRs were determined using the ImMunoGeneTics (IMGT) information system domain gap align.

[2] = biological target: T2, SPINK1-1 PTM peptide YNEL{iso-Asp}GCTKI (human)
T2 construct: Synthetic isoaspartylated fragment of SPINK1
T2 peptide: YNEL[βAsp]GCTKI
Text: as §1

[3] = biological target: T3, CA9-3 PTM peptide GV{isoAsp}SSPR (human)
T3 construct: Synthetic isoaspartylated fragment of CA9
T3 peptide: GV[βAsp]SSPR
Text: as §1

[4] = biological target: T4, TFRC-4 PTM peptide LNDRVM{Cit}VEYC (human, also: biotinylated, site not given here)
T4 construct: Synthetic citrullinated fragment of TFRC; biotinylated on streptavidin tetramers for B cell sorting
T4 peptide: LNDRVM[Cit]VEYC
Text: as §1

[5] = biological target: T5, TFRC-2 PTM peptide DFPAAR{Cit}LYW (human)
T5 construct: Synthetic citrullinated fragment of TFRC
T5 peptide: DFPAAR[Cit]LYW
Text: as §1

[6] = biological target: T6, TFRC-1 PTM peptide DFPAA{Cit}RLYW (human)
T6 construct: Synthetic citrullinated fragment of TFRC
T6 peptide: DFPAA[Cit]RLYW
Text: as §1

B1: 2H8 (antibody, V domains shown)
VH: QVQLVESGGGVVQPGRSLRLSCAASGFTFSTYGMHWVRQAPGKGLQWVAQISNDGSSKYYGDSVKGRFTISRDNSKNTLYLQMNSLRVEDTGVYYCASSGSSGTWGQGTQVTVSS
VL: EIVLTQSPATLFLFPGERVTFSCRASQSVNNYLAWYQQKPGQAPRLLIYDVSNRATGIPARFSGSGSGTDFTLTISSLDPEDFAVYFCQQRSNWPLTFGGGTKVEIK
binding result [1]: binds

B4: 2D2 antibody (antibody, V domains shown)
VH: QVQLVESGGGVVQPGRSLRLSCAASGFTFNSFALMWVRQAPGKGLEWVAVISNDGSNTYYADSVKGRFTISRDNSKNTLYLQMNSLRAEDTAVYYCARGSQYYGSGRYSRKQFDYWGQGTMVTVSS
VL: DIQMTQSPLSLPVTPGEPASISCRSSQSLLHADDGNTYLDWYLQKPGQSPQLLIYTLSSRASGVPDRFSGSGSGTNFTLRISRVEAEDVGVYYCMQRIESPLTFGGGTKVEIK
notes: From B cells of SCLC patient PBMCs; Labeled with CF770 for the in vivo imaging; also called 770-labeled 2D2 antibody
binding result [4]: binds

Other lines, results leading:

binding result [2]: binds
B2: 1A6 (antibody, V domains shown)
VH: QAGLLESGGGVVQPGRSLRLSCAASGFTFSSYGMHWVRQAPGKGLEWVAVIWYDGSNKYYADSVKGRFTISRDNSKNTLYLQMNSLRAEDTAVYYCARGGGITGTVSRKQGMDVWGQGTLVTVSS
VL: AIQLTQSPSSLSASVGDRVTITCRASQGISSYLAWYQQKPGKAPKLLMYGASTLQSGVPSRFSGSGSGTDFTLTISSLQPEDFATYYCQQVNSYPLTFGGGTKVEIK

binding result [3]: binds
B3: 1B3 (antibody, V domains shown)
VH: QVQLVESGGGLVQPGGSLRLSCAASGFTFSSYWMSWVRQAPGKGLEWVANIKQDGSEEYYVDSVKGRFTISRDNAKSLLYLQMNSLRPEDTAVYYCAGDSLPSSGWEGYFQHWGQGTLVTVSS
VL: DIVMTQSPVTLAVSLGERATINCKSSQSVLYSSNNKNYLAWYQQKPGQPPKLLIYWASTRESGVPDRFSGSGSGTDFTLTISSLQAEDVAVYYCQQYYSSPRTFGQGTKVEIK

binding result [5]: binds | binding result [6]: binds
B5: 2H5 (antibody, V domains shown)
VH: EVQLLESGGGLAQPGGSLRLSCGASGFTFSSHALSWVRLAPGKGLEWVSAISGSGDRTYYADSVKGRFTISRDNSKNMLYLQMNSLRGEDTAVYYCAKEATESYATSWGQGTLVTVSS
VL: DIQMTQSPSTLSASVGDRVTITCRASQSISSWLAWYQQKPGKAPNLLISKAFSVESGVPSTFSGSGSGTEFTLTISSLQPRDSASYYCQQYDSGWTFGQGTKVEIK
